Legend:
[1] = target: T1, Human CD38-His (human, UniProt P28907 43-300, limits assumed); assay: SPR (BIACORE 3000), capture format, 1:1 Langmuir model
T1 construct: Bought antigen; also called human CD38 (SPR antigen); not shown: His tag

[2] = target: T2, cynomolgus monkey CD38 (cynomolgus monkey, UniProt Q5VAN0 44-301, limits assumed); assay: ELISA, antigen-coated plate
T2 construct: also called Cyno CD38; cynoCD38
Description: (§1) Binding affinities to each target antigen by the CD38/CD28×CD3 T cell engagers were measured by ELISA. Briefly, each antigen was used to coat the 96-well Immuno Plate (Thermo Fisher Scientific) overnight at 4° C. using 200 ng/well in PBS (pH7.4) of each antigen. The coated plate was blocked using 5% skim milk+2% BSA in PBS for one hour at RT, followed by washing with PBS+0.25% Tween 20 three times (Aqua Max 400, Molecular Devices). Serial dilution of antibodies (trispecific and control Abs) were prepared and added onto the ELISA plates (100 μl/well in duplicate), incubated at room temperature (RT) for one hour, followed by washing 5 times with PBS+0.25% Tween 20. […] The reaction was terminated by adding 50 μl 1M H₂SO₄, and OD450 was measured using SpectraMax M5 (Molecular Devices) and analyzed using SoftMax Pro6.3 software (Molecular Devices). The final data was transferred to GraphPad Prism software (GraphPad Software, CA, USA), and plotted. EC50 was calculated using the same software.
(§2) The binding affinities of selected CD38/CD28sup×CD3mid_ENLQ DKTHT IgG4 FALA trispecific antibodies with alternative anti-CD38 binding domains for human CD3, human CD28, human CD38 and cynomolgus monkey CD38 were then determined by ELISA as described above.

[3] = target: T3, human CD38 (human, UniProt P28907 43-300, limits assumed); assay: ELISA, antigen-coated plate
T3 construct: also called hCD38; huCD38
Description: as §1, §2

[4] = target: T4, Human CD28 (human, UniProt P10747 19-152, limits assumed); assay: ELISA, antigen-coated plate
T4 construct: also called hCD28
Description: as §1, §2

[5] = target: T5, Human CD3 (human); assay: ELISA, antigen-coated plate
T5 chain: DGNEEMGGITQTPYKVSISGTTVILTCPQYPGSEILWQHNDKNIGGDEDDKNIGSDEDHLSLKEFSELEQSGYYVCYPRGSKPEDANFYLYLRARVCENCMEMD
Description: as §1, §2

[6] = target: T6, human CD38 on tumor cell lines NCI-H929 (CD38+/CD28+) and OCI-LY19 (CD38+/CD28-) (human, UniProt P28907 1-300); assay: cell-based or functional assay
[7] = target: T6, human CD38 on tumor cell lines NCI-H929 …; assay: cell-based or functional assay; remark: listed apart in the source

- Kd [1]: 2.85 nM
- koff [1]: 0.00158 s⁻¹
- kon [1]: 555000 M⁻¹ s⁻¹
- EC50 [2]: 2.13 nM
- EC50 [3]: 7.24 nM
- EC50 [4]: 0.725 nM
- EC50 [5]: 6.74 nM
B1: CD38VH1/CD28sup x CD3mid_ENLQ DKTHT IgG4 FALA (other)
light 1: DIVMTQTPLSLSVTPGQPASISCKSSQSLVHENLQTYLSWYLQKPGQSPQSLIYKVSNRFSGVPDRFSGSGSGTDFTLKISRVEAEDVGVYYCGQGTQYPFTFGSGTKVEIKDKTHTDIQMTQSPSSLSASVGDRVTITCQASQNIYVWLNWYQQKPGKAPKLLIYKASNLHTGVPSRFSGSGSGTDFTLTISSLQPEDIATYYCQQGQTYPYTFGQGTKLEIKDKTHTRTVAAPSVFIFPPSDEQLKSGTASVVCLLNNFYPREAKVQWKVDNALQSGNSQESVTEQDSKDSTYSLSSTLTLSKADYEKHKVYACEVTHQGLSSPVTKSFNRGEC
heavy 1: QVQLVQSGAEVVKPGASVKVSCKASGYTFTSYYIHWVRQAPGQGLEWIGSIYPGNVNTNYAQKFQGRATLTVDTSISTAYMELSRLRSDDTAVYYCTRSHYGLDWNFDVWGKGTTVTVSSDKTHTQVQLVESGGGVVQPGRSLRLSCAASGFTFTKAWMHWVRQAPGKQLEWVAQIKDKSNSYATYYADSVKGRFTISRDDSKNTLYLQMNSLRAEDTAVYYCRGVYYALSPFDYWGQGTLVTVSSDKTHTASTKGPSVFPLAPCSRSTSESTAALGCLVKDYFPEPVTVSWNSGALTSGVHTFPAVLQSSGLYSLSSVVTVPSSSLGTKTYTCNVDHKPSNTKVDKRVESKYGPPCPPCPAPEAAGGPSVFLFPPKPKDTLMISRTPEVTCVVVDVSQEDPEVQFNWYVDGVEVHNAKTKPREEQFNSTYRVVSVLTVLHQDWLNGKEYKCKVSNKGLPSSIEKTISKAKGQPREPQVCTLPPSQEEMTKNQVSLSCAVKGFYPSDIAVEWESNGQPENNYKTTPPVLDSDGSFFLVSKLTVDKSRWQEGNVFSCSVMHEALHNHYTQKSLSLSLG
heavy 2: QVQLVQSGAEVVKPGASVKVSCKASGYTFTSYAMHWVKEAPGQRLEWIGYIYPGQGGTNYNQKFQGRATLTADTSASTAYMELSSLRSEDTAVYFCARTGGLRRAYFTYWGQGTLVTVSSASTKGPSVFPLAPCSRSTSESTAALGCLVKDYFPEPVTVSWNSGALTSGVHTFPAVLQSSGLYSLSSVVTVPSSSLGTKTYTCNVDHKPSNTKVDKRVESKYGPPCPPCPAPEAAGGPSVFLFPPKPKDTLMISRTPEVTCVVVDVSQEDPEVQFNWYVDGVEVHNAKTKPREEQFNSTYRVVSVLTVLHQDWLNGKEYKCKVSNKGLPSSIEKTISKAKGQPREPQVYTLPPCQEEMTKNQVSLWCLVKGFYPSDIAVEWESNGQPENNYKTTPPVLDSDGSFFLYSKLTVDKSRWQEGNVFSCSVMHEALHNHYTQKSLSLSLG
light 2: DIVLTQSPATLSLSPGERATISCRASQSVSSYGQGFMHWYQQKPGQPPRLLIYGASSRATGIPARFSGSGSGTDFTLTISPLEPEDFAVYYCQQNKEDPWTFGGGTKLEIKRTVAAPSVFIFPPSDEQLKSGTASVVCLLNNFYPREAKVQWKVDNALQSGNSQESVTEQDSKDSTYSLSSTLTLSKADYEKHKVYACEVTHQGLSSPVTKSFNRGEC
notes: Trispecific antibody; also called BP # 1
- EC50 of in vitro killing of OCI-LY19 (CD38+/CD28-) cells, With Dara [6]: 0.136 nM
- EC50 of in vitro killing of OCI-LY19 (CD38+/CD28-) cells, With human IgG1 [6]: 0.00566 nM
- EC50 of in vitro killing of NCI-H929 (CD38+/CD28+) cells, With Dara [7]: 0.0298 nM
- EC50 of in vitro killing of NCI-H929 (CD38+/CD28+) cells, With human IgG1 [7]: 0.00106 nM

Reference: patent US20200399369A1 (Sanofi, published 2020)
